Data as given in article PMC3328386 (The Journal of Cell Biology, 2012).

Legend:
[1] = target: recombinant SUMO1 (UniProt P63165 1-97); assay: ITC
[2] = target: recombinant SUMO2 (UniProt P61956 1-95); assay: ITC
Chain of recombinant SUMO2 (P61956 whole entry): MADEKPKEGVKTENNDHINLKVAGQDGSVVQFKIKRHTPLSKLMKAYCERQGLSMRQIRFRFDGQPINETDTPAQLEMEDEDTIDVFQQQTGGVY

Chain of recombinant SUMO1 (P63165 1-97): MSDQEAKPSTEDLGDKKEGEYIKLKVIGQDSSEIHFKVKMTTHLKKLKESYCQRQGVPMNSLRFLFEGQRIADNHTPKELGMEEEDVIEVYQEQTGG

Kd [1]: ~3 µM | Kd [2]: ~60 µM
B1: recombinant HERC2 ZZ domain (amino acids 2702–2755), WT (domain or fragment)
chain: IHPGVTCDGCQMFPINGSRFKCRNCDDFDFCETCFKTKKHNTRHTFGRINEPGQ
